Data from the DeepSol protein solubility set.

Experiment: soluble on expression in E. coli; label from the status in PepcDB or PDB records
In the case of “MGHHHHHHSHMDTPENVLQMLEAHMQSYKGNDPLGEWERYIQWVEENFPENKEYLITLLEHLMKEFLDKKKYHNDPRFISYCLKFAEYNSDLHQFFEFLYNHGIGTLSSPLYIAWAGHLEAQGELQHASAVLQRGIQNQAEPREFLQQQYRLFQTRLTETHLPAQAR”, the “soluble on expression in E. coli” value is reported as “not soluble”.
For “MGHHHHHHSHMEFRSVAERICGDIVLSENSGEALRKWRSIFNASQSDLARKLGISPSVISDYESGRRKPGTAFLKKFVCALIELDGERGYQVLSKYRYFLESDHKAVLDIAEYQKTAEPSEFCEVIEGKMLTHFDKAIHGHTVIDSINAILSLNAFDFYRLYGLTSERALIFTRVSTGRSPMVAVRVSNLKPSAVVLHGLEAERVDEMAKKIAEIERIPLVVTEIAIGEIVKRLRRKFA”, the “soluble on expression in E. coli” value was “not soluble”.
In the case of “MGHHHHHHSHMEPEAFEICPYDPHHRIPLSRFQYHLASCRRKNPKKAKKMATCKYNACHVVPIKNLEEHEAVCVNRSAVEEEDTENPLKVSPPSSEQNDDTQQVSPCLPSPDIWNVDGANCQHVFVLKTFFPQKVVCENDTKESARETSPQKILRPGQ”, the “soluble on expression in E. coli” value is reported as “not soluble”.
With “MGHHHHHHSHMEQFEVIKQQKEIIEHGIELFNKKPKRGIQFLQEQGMLGTSVEDIAQFLHQEERLDSTQVGDFLGDSARFNKEVMYAYVDQLDFCEKEFVSALRTFLEGFRLPGEAQKIDRLMEKFAARYIECNQGQTLFASADTAYVLAYSIIMLTTDLHSPQVKNKMTKEQYIKMNRGINDSKDLPEEYLSSIYEEIEGKKIAMKETKELT” the “soluble on expression in E. coli” value was “soluble”.
With “MGHHHHHHSHMFLQYYLNEQGDRVYTLKKFDPMGQQTCSAHPARFSPDDKYSRHRITIKKRFKVLMTQQPRPVL” the “soluble on expression in E. coli” value was “not soluble”.
With “MGHHHHHHSHMGFYLGITALKSIGNNKNNNIDNENNHQAKILTFPVSFTCRTFLPARGDILQGTVKKVLWNGAFIRSGPLRYAYLSLLKMPHYHYVHSPLSEDEKPHFQKDDLSKIAVGVVVRFQVLAVRFKERPHKRRNDYYVLATLEGNGSFGP” the “soluble on expression in E. coli” value was “soluble”.
For “MGHHHHHHSHMGRCYNNIVIDASIEAVWQQIGNFHDMSWAKGVITSLVKVGPASGTEVGAKRILNDAIHETLVSLDSSNYTFTYSIDDGPDAIAKSAVDNYLGMVNLSESSTGVLVEWSSSFTSDNEKAVTEFCDP”, the “soluble on expression in E. coli” value was “not soluble”.
With “MGHHHHHHSHMGVAGTPGLPESPDKSPVGRKKSKGLATRLSRRRVSCRELGRPDCDGWLLLRKAPGGFMGPRWRRRWFVLKGHTLYWYRQPQDEKAEGLINVSNYSLESGHDQKKKYVFQLTHDVYKPFIFAADTLTDLSMWVRHLITCISKYQSP” the “soluble on expression in E. coli” value was “soluble”.
With “MGHHHHHHSHMKALSPVRGCYEAVCCLSERSLAIARGRGKGPAAEEPLSLLDDMNHCYSRLRELVPGVPRGTQLSQVEILQRVIDYILDLQVVLAEPAPGPPDGPHLPIQTAELAPELVISNDKRSFCH” the “soluble on expression in E. coli” value was “not soluble”.
In the case of “MGHHHHHHSHMKESAHLAISWLRSNAKKYQLTNAFGSFDLLDNTDIHLHFPAGAVTKDGPSAGVTIVTCLASLFSGRLVRSDVAMTGEITLRGLVLPVGGIKDKVLAAHRAGLKQVIIPRRNEKDLEGIPGNVRQDLSFVTASCLDEVLNAAFDGGFTVKTRPGLLNSKL”, the “soluble on expression in E. coli” value is reported as “not soluble”.
With “MGHHHHHHSHMKIFKFTPENNLFYGYILEDMKTGFNILREIMVEGYRPSIARLYDAEDGTQHFTHFADGKCVLIFMAEGNPRIAKVTGEGIAEIVARYPQCQRVDSKLIETWFNNLNWGPDKVAAERVQILKTGNMGFTTEVSGCWSCIHEIYESVINRIRTEFPHADDITMLGGHSSHSYQNGTNMYFVYDYNVVDCKPEEEIDKYHNPLNKIICEETIRLGGSMVHHHGIGKHRVHWSKLEHGSAWALLEGLKKQFDPNGIMNTGTIYPIEK” the “soluble on expression in E. coli” value was “not soluble”.
For “MGHHHHHHSHMKNLINWFEIPVTDMARAIAFYEQVMQISLRRETMDGADLAVFPYAEPGPGGALIKQDDVAPVAQGVVIYLHTADLLASIERVVLAGGKCVLEPMVPGDDIGTIALFIDSEGNRIGLHQPA”, the “soluble on expression in E. coli” value was “soluble”.
For “MGHHHHHHSHMKQKLLVTLLGLSALGASPVFAANTNVDLAEDAYIYGYSIDEAYKFFYHTAVENNYPLNRFQNIRALADDSYTAHPTINNDTLHLMGWLDVAAEPVIVSVPDMDEGRYWILHTMDMGHYTNAAFSSRTRGTKGGQFMFAAQDWQGEVPASVDEVVRVDSNLVKLMGRIMAVNDEDAKVALNYMDQWNIRTLSEYLGKNGPKPVQRTYPDPKKSTWLERVNFVLCDGSMGNADKQWLDKYQSIGVEPCKTDFTPEQLKLAKVGEKKGMEHLVELAPKMTDARTLLGTRDTLGDAPRDIFAEGTYLGQWGLPPIEASYRKSDFDSIGQKLDGSKHDYVMRFKAPNVSEFWSVTIYGNDNRLMAKNDLNRHSRGDRTMKADKDGYYTIYMSANEKGRADDPNFLPVPEKPFYAIMRFYGADDAIQSGEYQMPEIKVVK”, the “soluble on expression in E. coli” value was “soluble”.
With “MGHHHHHHSHMLLPRGLDIKQEELGDLVDKEMAATSAAIETATARIEEMLSKSRAGDTGVKLEVNERILGCCTSLMQAIQVLIVASKDLQREIVESGRGTASPKEFYAKNSRWTEGLISASKAVGWGATVMVDAADLVVQGRGKFEELMVCSHEIAASTAQLVAASKVKADKDSPNLAQLQQASRGVNQATAGVVASTISGKSQIEETDNMDFSSMTLTQI” the “soluble on expression in E. coli” value was “soluble”.
In the case of “MGHHHHHHSHMMQESGTETKSNGSAIQNGSGGSNHLLECGGLREGRSNGETPAVDIGAADLAHAQQQQQQWHLINHQPSRSPSSWLKRLISSPWELEVLQVPLWGAVAETKMSGPVCQPNPSPF”, the “soluble on expression in E. coli” value is reported as “not soluble”.
In the case of “MGHHHHHHSHMPFKLFKKLTISSVVTSATVNWATLASRTVFILPKRVLPYLRSVARLTRVVIAMDRYGGLLGGFLRAVPPVQKPLSLTDGNKFREGIMSEVGKYVSTLVDPRNMMLDSFHHLKHNKSLQGSFLVHAGTVSDQEVCGTPMFCYKDGLSNPEIDRLLTPISLTRLTVPNNENSDVFRIGNIIYSEDSGLFDIIPTLRTRLMERNLHEGLVFVGPLIKNINSSFVNKITTAIKGDTVLNESLSHGLVLKLPVEQFMDFETTNTFHYTGRLPMTHRSYIYYALGYVITADGTQSLLQKFFRTPIEGPEFTRLVRDYFAGEIRNFFLGDNDFGQGNFLMFGAVCRCGYFPEDSLLTRTRVSIKGGGLSLIEIPDFTVSRGPWQFI”, the “soluble on expression in E. coli” value is reported as “not soluble”.
With “MGHHHHHHSHMPKNQEDSEEKGEKDEQTAKFLHKLAENGKDRGLPDCVVAQYEKNAWEATNSDEKYKSCEKCGMPPPPPIDGAKNSVVEEVCKNCETINEKPIGIESQILEKRRNEEILKRKEERKSLKRSAEESVTNSAPEKIQKKVHVKIMPRKCAPQILRRSLVPPPILTPKSAKKKLKLAENKEPDFLKALLNVTGNPV” the “soluble on expression in E. coli” value was “not soluble”.
For “MGHHHHHHSHMPKVYGSLIDTETRCRHYFTEEDIIAIKFKCCNKYYPCYKCHNEFEKHAIKRWSEPSFNEKAILCGVCKHELTINEYMMVERCPNCQSRFNNRCKYHYHIYFEI”, the “soluble on expression in E. coli” value was “soluble”.
With “MGHHHHHHSHMRDCCGMVSSGSLSSLKAAERTPGALFFSSSTPGRYYNYDSSSRPQSRSVMSDQCAGQWFLKACGLGEGDTEVFPTQHVVRALQTIFELNVQAFAGGAMGAVNGMQPHGVPDKSSVQSDEVWVGVVYGLAATMIQEVMHSFSHLSTICILAQKTSSTTKFLQGITQCHLVRL” the “soluble on expression in E. coli” value was “not soluble”.
With “MGHHHHHHSHMRLSQKWQVINQRSLLCGEDEAADENPESQEMLEEQLVRMLTREVMDLITVCCVSKKGADHSSAPPADGDDEEMMATEVTPSAMAELTDLGKCLMKHEDVCTALLITAFNSLAWKDTLSCQRTTSQLCWPLLKQVLSGTLLADAVTWLFTSVLKGLQMHGQHDGCMASLVHLAFQIYEALRPRYLEIRAVMEQIPEIQKDSLDQFDCKLLNPSLQKVADKRRKDQFERLIAGCIGKPLGEQFRKEVHIKNLPSLFKKTKPMLETEVLDNDGGGLATIFEP” the “soluble on expression in E. coli” value was “not soluble”.
With “MGHHHHHHSHMSNWLEHSVQVEVEAPIDLVWGLWADLEQMPNWMKWIDSVKVPPENPDLSLWKLNTGGLEFTWKSRITKVITNQIIQWESIDGLPNQGAIRFYDRHGHSIVKMTISYAIPGFLGKIMDNLFLG” the “soluble on expression in E. coli” value was “not soluble”.
With “MGHHHHHHSHMSQPPLLPASAETRKFTRALSKPGTAAELRQSVSEVVRGSVLLAKPKLIEPLDYENVIVQKKTQILNDCLREMLLFPYDDFQTAILRRQGRYICSTVPAKAEEEAQSLFVTECIKTYNSDWHLVNYKYEDYSGEFRQLPNKVVKLDKLP” the “soluble on expression in E. coli” value was “not soluble”.
For “MGHHHHHHSHMTLVLSMNRFCEPIVSEGAAEIAGYQTLWEADSYGGPSPPGPAQAPLQGDRGAGPPLAGSHYRGISNPITTSKITYFKRKYVEEEDFHPPLSSCSHKEQSRGQLVEDMTIKRHQLRNKYKTRIQGFLCDAARFLYPSNKCICDRLKNDD”, the “soluble on expression in E. coli” value was “not soluble”.
With “MGHHHHHHSHNDGRIMGFVSRSQERRLLKKTMSGTFLLRFSESSEGGITCSWVEHQDDDKVLIYSVQPYTKEVLQSLPLTEIIRHYQLLTEENIPENPLRFLYPRIPRDEAFGCYYQEKVNLQERRKYLKHRLIVVSNRQVDELQQPLELKPEPELESLELELGLVPEPELSLDLEPLLKAGLDLGPELESVLESTLEPVIEPTLCMVS” the “soluble on expression in E. coli” value was “soluble”.
With “MGHQNAAVSENQNHDDGAASSPGFKLVGFSKFVRKNPKSDKFKVKRFHHIEFWCGDATNVARRFSWGLGMRFSAKSDLSTGNMVHASYLLTSGDLRFLFTAPYSPSLSAGEIKPTTTASIPSFDHGSCRSFFSSHGLGVRAVAIEVEDAESAFSISVANGAIPSSPPIVLNEAVTIAEVKLYGDVVLRYVSYKAEDTEKSEFLPGFERVEDASSFPLDYGIRRLDHAVGNVPELGPALTYVAGFTGFHQFAEFTADDVGTAESGLNSAVLASNDEMVLLPINEPVHGTKRKSQIQTYLEHNEGAGLQHLALMSEDIFRTLREMRKRSSIGGFDFMPSPPPTYYQNLKKRVGDVLSDDQIKECEELGILVDRDDQGTLLQIFTKPLGDRPTIFIEIIQRVGCMMKDEEGKAYQSGGCGGFGKGNFSELFKSIEEYEKTLEAKQLVG” the “soluble on expression in E. coli” value was “soluble”.
For “MGHVSNSPFSVDVLVVGGGPAGSAAAIHAAKAGYSVLLIDAQPFPRDKTCGDGLTPRAVHQLEALGVDVTSRYRSFGLKLHGFGGSVTVPWPESHFGQVSSAMPRMKFDAMLWEMAAQHATTWTATASEVEIDSAIRSVTMSDGRVVKPRSVIVADGVRSTFGKLLGRTWHRGEVYGIAARSYCTTPRSTEPWMHSHLELRDDSTTLPGYGWIFPIGDGTANVGCGALSTDKRPAKINTKKLLRHYASQQTDWEFGTPQRVASALLPMGGAVSTIAGPNWMLIGDAAACVNPLNGEGIDYGLETAALAVAHLDNPLEWPHILRETYGEAFLLARTAARLLTYPQFLPLTGPIALRTPLMASAARLMGNLVTEEDKDIVARAWRAAGWGVTKIRGGSPLWDLEHHHHHH”, the “soluble on expression in E. coli” value was “not soluble”.
For “MGIKKKYGEGKMDIKPIRKKRVYQAIIEQIQQFIRQGQLKPGDKLPSERDLAEKFQVSRTTIKEAIAVMEAIGVLEIRPGVGTFVRETGNHFLDLNYIFGDDDTEIQELMEFRQAIEVEAAYYAAIRGTEDGKRKLTQLFSELEKEVMSGKLPAKSDFSFHMQISSMSQNALFLRIMEFISDKLFKSVTKNAVNTFAGAGDPVRVLQEHRAIYEAILSGDGVKARQAMRYHLESVIARYKGI”, the “soluble on expression in E. coli” value was “soluble”.
